# Literature values in paper PMC2683937.
# Experiments:
# TGF-β1 (Homo sapiens) = TGF-β1 (Homo sapiens) (UniProt P01137)
# BMP4 (Homo sapiens) = BMP4 (Homo sapiens) (UniProt P12644)
# Sequence of UniProt P12644 (P12644 293-408): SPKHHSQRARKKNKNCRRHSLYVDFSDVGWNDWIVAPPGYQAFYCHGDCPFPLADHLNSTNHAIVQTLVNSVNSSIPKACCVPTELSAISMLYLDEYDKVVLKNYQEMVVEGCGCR
# Sequence of UniProt P01137 (P01137 279-390): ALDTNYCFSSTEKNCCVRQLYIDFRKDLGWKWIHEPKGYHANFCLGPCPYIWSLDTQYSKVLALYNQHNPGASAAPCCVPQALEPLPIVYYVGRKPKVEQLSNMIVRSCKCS
substance,measurement,setting,value
CCN2 (from UniProt P29279),Kd,TGF-β1 (Homo sapiens),30 nM
same,Kd,BMP4 (Homo sapiens),5 nM
